Assay results reported in article PMC4618406.

Experiments:
[1] = ThT fluorescence of gT72/unmodified mixtures, 50 μM total; conditions: glycan gained, control: unmodified α-synuclein
[2] = TEM of fibers from mixtures; conditions: glycan gained; control: unmodified α-synuclein, 50 μM

In the case of α-synuclein: 50% α-synuclein(gT72), the “other: fibril aggregation” value [1] is reported as “decreases”.

In the case of α-synuclein: 10% α-synuclein(gT72), the “other: fibril aggregation” value [1] is reported as “decreases”.

In the case of “α-synuclein: 10-50% α-synuclein(gT72) mixtures”, the structure_or_conformation [2] is reported as “no change”.

In the case of α-synuclein: 25% α-synuclein(gT72), the “other: fibril aggregation” value [1] is reported as “decreases”.
